Measurements reported in patent US9156916.

Columns and labels:
[1] = target: human surface membrane immunoglobulin D (smIgD) (human) (UniProt P01880); assay: cell-based or functional assay
[2] = target: human surface membrane immunoglobulin D (smIgD) (human) (UniProt P01880); assay: flow cytometry, dual labelling of human PBMC (CD3 and IgD)
[3] = target: human surface membrane immunoglobulin D (smIgD) (human) (UniProt P01880); assay: flow cytometry, dual labelling of human PBMC (CD14 and IgD)

Sequence of UniProt P01880 (P01880 whole entry): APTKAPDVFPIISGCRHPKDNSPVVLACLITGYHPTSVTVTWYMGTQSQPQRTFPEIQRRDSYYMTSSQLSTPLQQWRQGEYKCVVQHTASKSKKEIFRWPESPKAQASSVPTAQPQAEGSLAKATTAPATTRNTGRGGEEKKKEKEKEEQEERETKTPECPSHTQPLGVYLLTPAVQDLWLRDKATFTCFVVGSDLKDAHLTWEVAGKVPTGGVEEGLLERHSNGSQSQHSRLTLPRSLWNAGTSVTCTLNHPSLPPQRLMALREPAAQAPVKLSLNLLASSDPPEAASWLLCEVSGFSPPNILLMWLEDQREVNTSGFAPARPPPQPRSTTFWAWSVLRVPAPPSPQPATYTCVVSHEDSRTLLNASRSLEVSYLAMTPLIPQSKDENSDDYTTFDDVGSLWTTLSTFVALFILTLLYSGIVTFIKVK

Row | proportion of human monocyte population expressing intra-cellular TNF-α after LPS, antibody given 24 hrs before LPS (flow cytometry) [1] [%] | proportion of human monocyte population expressing intra-cellular TNF-α, antibody given concurrently with LPS for 4 hours (flow cytometry) [1] [%] | percent of CD3+ T-cells labelled for smIgD [2] [%] | percent of CD14+ cells labelled for smIgD [3] [%] | Substance
1 | 5 | 26 | – | – | anti-human smIgD antibody (clone STAR94, Serotec, Oxford, UK)
2 | – | – | 10 | 54 | goat FITC-conjugated anti-human IgD antibody (clone STAR94F)
